# Results: paper PMC11417369, “DNA sequence and chromatin differentiate sequence-specific transcription factor binding in the human malaria parasite Plasmodium falciparum”
# Target: T1, AP2-G D1 (Plasmodium falciparum, UniProt Q8I5I9 2123-2245)
# T1 sequence: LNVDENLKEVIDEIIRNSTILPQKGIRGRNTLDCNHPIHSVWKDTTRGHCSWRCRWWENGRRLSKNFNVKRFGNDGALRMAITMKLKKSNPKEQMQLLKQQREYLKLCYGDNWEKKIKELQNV
# Test: gcPBM; about 25 ug protein; PBS, 1% milk, 0.2 mg/ml BSA, salmon testes DNA, 0.03% Triton X-100
# Details: tags: N-terminal GST (pGEX-4T-1), kept; label: surface-attached array probe
row,Binder,binding signal
1,XGTACX_negctrl_site224 (dsDNA) DNA 1: TTGTTTCTTAAATTATTTATTTTATATTAAAAAAAA DNA 2: TTTTTTTTAATATAAAATAAATAATTTAAGAAACAA,"9.8 ln median PBM intensity, better of two orientations"
2,XGTACX_negctrl_site524 (dsDNA) DNA 1: AAAACTATTAATGCAAAAAATAAAATATAATAATAA DNA 2: TTATTATTATATTTTATTTTTTGCATTAATAGTTTT,"9.83 ln median PBM intensity, better of two orientations"
3,XGTACX_negctrl_site66 (dsDNA) DNA 1: TTTTGAGAAAAAATAAAATAATAAATAAAAATACAT DNA 2: ATGTATTTTTATTTATTATTTTATTTTTTCTCAAAA,"9.8 ln median PBM intensity, better of two orientations"
4,XGTACX_negctrl_site180 (dsDNA) DNA 1: TACATATAAATATATAAATATAAATAAATAAATAAA DNA 2: TTTATTTATTTATTTATATTTATATATTTATATGTA,"9.74 ln median PBM intensity, better of two orientations"
5,XGTACX_negctrl_site461 (dsDNA) DNA 1: ATGAATTTTTCTCTACAAAAGGATATAATAAAAATA DNA 2: TATTTTTATTATATCCTTTTGTAGAGAAAAATTCAT,"9.76 ln median PBM intensity, better of two orientations"
6,XGTACX_negctrl_site188 (dsDNA) DNA 1: AAAGTATAACGGATACCATTTATGTGATTATTTTGT DNA 2: ACAAAATAATCACATAAATGGTATCCGTTATACTTT,"9.78 ln median PBM intensity, better of two orientations"
7,XGTACX_negctrl_site426 (dsDNA) DNA 1: TATTAAAATTAAAAAAAAAAAAAAAAGCAATAAAAA DNA 2: TTTTTATTGCTTTTTTTTTTTTTTTTAATTTTAATA,"9.73 ln median PBM intensity, better of two orientations"
8,XGTACX_negctrl_site268 (dsDNA) DNA 1: AAAACAAATTTTAATGAGAATATGAAAAAAAAATAT DNA 2: ATATTTTTTTTTCATATTCTCATTAAAATTTGTTTT,"9.74 ln median PBM intensity, better of two orientations"
9,XGTACX_negctrl_site395 (dsDNA) DNA 1: TTATTAGAGATGTTAAGATATAGGGATAATTTCGAT DNA 2: ATCGAAATTATCCCTATATCTTAACATCTCTAATAA,"9.76 ln median PBM intensity, better of two orientations"
10,XGTACX_negctrl_site279 (dsDNA) DNA 1: TTTTTACTATAAGGGGAAAAAAAAAAAAATAATATA DNA 2: TATATTATTTTTTTTTTTTTCCCCTTATAGTAAAAA,"9.81 ln median PBM intensity, better of two orientations"
11,XGTACX_negctrl_site546 (dsDNA) DNA 1: AGCCCTTTTTTTTTTTAGAATATTGCATAATTATAT DNA 2: ATATAATTATGCAATATTCTAAAAAAAAAAAGGGCT,"9.79 ln median PBM intensity, better of two orientations"
12,XGTACX_negctrl_site587 (dsDNA) DNA 1: TATGAAAAAAAAAAAAAAAAAAAAAAAAAAAAAAAA DNA 2: TTTTTTTTTTTTTTTTTTTTTTTTTTTTTTTTCATA,"9.69 ln median PBM intensity, better of two orientations"
13,XGTACX_negctrl_site187 (dsDNA) DNA 1: AATATATATATATATATATATATTTCAATATATAAA DNA 2: TTTATATATTGAAATATATATATATATATATATATT,"9.75 ln median PBM intensity, better of two orientations"
14,XGTACX_negctrl_site507 (dsDNA) DNA 1: ATAAAAAATAAATATATACATACATACATACATATA DNA 2: TATATGTATGTATGTATGTATATATTTATTTTTTAT,"9.8 ln median PBM intensity, better of two orientations"
15,XGTACX_negctrl_site190 (dsDNA) DNA 1: AATAGAAACATTTTACATGTATATATAATTTTTTTT DNA 2: AAAAAAAATTATATATACATGTAAAATGTTTCTATT,"9.8 ln median PBM intensity, better of two orientations"
16,XGTACX_negctrl_site480 (dsDNA) DNA 1: TTGATAAAAAAAAAAAAATAAAAAAAAAATAAAAAA DNA 2: TTTTTTATTTTTTTTTTATTTTTTTTTTTTTATCAA,"9.72 ln median PBM intensity, better of two orientations"
17,XGTACX_negctrl_site421 (dsDNA) DNA 1: TATAAGAGAAGAAGAAAAAAAAGGTTTCTATAGAAA DNA 2: TTTCTATAGAAACCTTTTTTTTCTTCTTCTCTTATA,"9.78 ln median PBM intensity, better of two orientations"
18,XGTACX_negctrl_site374 (dsDNA) DNA 1: AATAAACATTATTTTCGTATTCCAATTCTTTTTTTT DNA 2: AAAAAAAAGAATTGGAATACGAAAATAATGTTTATT,"9.74 ln median PBM intensity, better of two orientations"
19,XGTACX_negctrl_site572 (dsDNA) DNA 1: TTAGGAAGCTCACAAAATAAAGTGAAAAGAAGAAAA DNA 2: TTTTCTTCTTTTCACTTTATTTTGTGAGCTTCCTAA,"9.76 ln median PBM intensity, better of two orientations"
20,XGTACX_negctrl_site380 (dsDNA) DNA 1: TTTTTTAAAAGATATATAATATGTATGAATATTCAA DNA 2: TTGAATATTCATACATATTATATATCTTTTAAAAAA,"9.71 ln median PBM intensity, better of two orientations"
21,XGTACX_negctrl_site331 (dsDNA) DNA 1: AAGGAATAAAATTTAGAAGACAATTTTATTTCAGTA DNA 2: TACTGAAATAAAATTGTCTTCTAAATTTTATTCCTT,"9.81 ln median PBM intensity, better of two orientations"
22,XGTACX_negctrl_site80 (dsDNA) DNA 1: AAACATTTATCAATGAATCTTTTAATAAGTGTAAAG DNA 2: CTTTACACTTATTAAAAGATTCATTGATAAATGTTT,"9.73 ln median PBM intensity, better of two orientations"

row,Binder,binding signal
1,XGTACX_negctrl_site277 (dsDNA) DNA 1: TTATTTTACTTTTATGCAACTAAAAATATTGCTATA DNA 2: TATAGCAATATTTTTAGTTGCATAAAAGTAAAATAA,"9.82 ln median PBM intensity, better of two orientations"
2,XGTACX_negctrl_site599 (dsDNA) DNA 1: TTTTTGTAAACCTACTTCATAATTATTTATATCTAT DNA 2: ATAGATATAAATAATTATGAAGTAGGTTTACAAAAA,"9.69 ln median PBM intensity, better of two orientations"
3,XGTACX_negctrl_site14 (dsDNA) DNA 1: AAATAAAAAGAAAAGAAAAAGAAAATAAAAAGAGAA DNA 2: TTCTCTTTTTATTTTCTTTTTCTTTTCTTTTTATTT,"9.83 ln median PBM intensity, better of two orientations"
4,XGTACX_negctrl_site542 (dsDNA) DNA 1: TACATTTCATTGTAATCATAAAAAATAAAGAAAAAA DNA 2: TTTTTTCTTTATTTTTTATGATTACAATGAAATGTA,"9.7 ln median PBM intensity, better of two orientations"
5,XGTACX_negctrl_site501 (dsDNA) DNA 1: AAATTATAAAAAAAAAAAAAAAAAAAAAAAAAAAAA DNA 2: TTTTTTTTTTTTTTTTTTTTTTTTTTTTTATAATTT,"9.83 ln median PBM intensity, better of two orientations"
6,XGTACX_negctrl_site283 (dsDNA) DNA 1: TACTAAAATATATATATGCAACATGAGATATTCAAC DNA 2: GTTGAATATCTCATGTTGCATATATATATTTTAGTA,"9.82 ln median PBM intensity, better of two orientations"
7,XGTACX_negctrl_site69 (dsDNA) DNA 1: AGAGTAGGAAATGGAAAAATAAAATAAATAAATAAA DNA 2: TTTATTTATTTATTTTATTTTTCCATTTCCTACTCT,"9.72 ln median PBM intensity, better of two orientations"
8,XGTACX_negctrl_site102 (dsDNA) DNA 1: TTCTTTTTATTTATATTTTCCCCTCTCTATAGCTAT DNA 2: ATAGCTATAGAGAGGGGAAAATATAAATAAAAAGAA,"9.73 ln median PBM intensity, better of two orientations"
9,XGTACX_negctrl_site181 (dsDNA) DNA 1: ATTCGTAGTTTTATGAATTAATATAATAAAAATTAA DNA 2: TTAATTTTTATTATATTAATTCATAAAACTACGAAT,"9.77 ln median PBM intensity, better of two orientations"
10,XGTACX_negctrl_site614 (dsDNA) DNA 1: TAATTCGCAAAAGAAAGAAATTAAGAAAAAGAAAAA DNA 2: TTTTTCTTTTTCTTAATTTCTTTCTTTTGCGAATTA,"9.81 ln median PBM intensity, better of two orientations"
11,XGTACX_negctrl_site448 (dsDNA) DNA 1: ATATAAGATTACAAAAATTATGTGTAAATATTTAAT DNA 2: ATTAAATATTTACACATAATTTTTGTAATCTTATAT,"9.81 ln median PBM intensity, better of two orientations"
12,XGTACX_negctrl_site347 (dsDNA) DNA 1: AAAATGGAACTAGGAATAATATAAGAAGATAAAAGG DNA 2: CCTTTTATCTTCTTATATTATTCCTAGTTCCATTTT,"9.72 ln median PBM intensity, better of two orientations"
13,XGTACX_negctrl_site39 (dsDNA) DNA 1: TTTTTAATTATCTTTTCCCATGGTTTCTCCGTTTTT DNA 2: AAAAACGGAGAAACCATGGGAAAAGATAATTAAAAA,"9.84 ln median PBM intensity, better of two orientations"
14,XGTACX_negctrl_site200 (dsDNA) DNA 1: GTCCTTATGGATGATAAATTATTTTAAATATTCTAT DNA 2: ATAGAATATTTAAAATAATTTATCATCCATAAGGAC,"9.79 ln median PBM intensity, better of two orientations"
15,XGTACX_negctrl_site88 (dsDNA) DNA 1: AAGGGGAGAAAAATAAACGAAATATATACATACATA DNA 2: TATGTATGTATATATTTCGTTTATTTTTCTCCCCTT,"9.83 ln median PBM intensity, better of two orientations"
16,XGTACX_negctrl_site160 (dsDNA) DNA 1: ACATGCCAAAATCTAATACAATAATAATAAAAAAAA DNA 2: TTTTTTTTATTATTATTGTATTAGATTTTGGCATGT,"9.83 ln median PBM intensity, better of two orientations"
17,XGTACX_negctrl_site555 (dsDNA) DNA 1: TTCTTTATTTATCATTATAAGAAGAGTTGATTTGTT DNA 2: AACAAATCAACTCTTCTTATAATGATAAATAAAGAA,"9.71 ln median PBM intensity, better of two orientations"
18,XGTACX_negctrl_site314 (dsDNA) DNA 1: TAATTTATAAGGTATAACAACAATTGCATCTATCAC DNA 2: GTGATAGATGCAATTGTTGTTATACCTTATAAATTA,"9.69 ln median PBM intensity, better of two orientations"
19,XGTACX_negctrl_site149 (dsDNA) DNA 1: AGAATTTAGAAACAATGTTGTATATGTAATACCTTT DNA 2: AAAGGTATTACATATACAACATTGTTTCTAAATTCT,"9.82 ln median PBM intensity, better of two orientations"
20,XGTACX_negctrl_site595 (dsDNA) DNA 1: TTATATTATGTTCAATCAAAAATTATTTTTAAAAAA DNA 2: TTTTTTAAAAATAATTTTTGATTGAACATAATATAA,"9.82 ln median PBM intensity, better of two orientations"
21,XGTACX_negctrl_site373 (dsDNA) DNA 1: ATTTATAATGATTTTTTTAGTAATCTTGTTATTTTT DNA 2: AAAAATAACAAGATTACTAAAAAAATCATTATAAAT,"9.69 ln median PBM intensity, better of two orientations"
